From PMC8034617 (Nucleic Acids Research, 2021)
Ends that are not written are not given here.

How the values were obtained:
His-RPS19 wt [1] = target: T1, His-RPS19 wt (human (cDNA from K562), UniProt P39019 1-145); test: thermal shift assay
His-RPS19 wt [2] = target: T1, His-RPS19 wt; test: pull-down

binding result (His-RPS19 wt [1]) | binding result (His-RPS19 wt [2]) | Binder
binds | – | FPMRGRGGFDRMPPGRGGR (also: asymmetrically dimethylated, places not given here) [HNRNPK-derived peptide P1m (asymmetrically dimethylated)]
– | binds | FPMRGRGGFDRMPPGRGGR (also: biotin, position not given here) [biotinylated HNRNPK peptide P1]
– | binds | FPMRGRGGFDRMPPGRGGR (also: biotinylated, position not given here) [biotinylated HNRNPK peptide P1m]
